Key:
FcRn = FcRn (Homo sapiens, UniProt P55899); test: Relative binding to FcRn by surface plasmon resonance (SPR); settings: for Relative level of FcRn binding (at Day-14) (%): EXAMPLE-8, small-scale purified mAb from CHO L971 process, SPR
Description: The neonatal Fe receptor (FcRn) influences the pharmacokinetic (PK) profile of IgG-type antibodies by its ability to salvage antibodies from the early endosome and recycle them back into circulation. The interaction with FcRn is considered to be the most critical factor in determining the PK of IgG-type therapeutic antibodies and is considered a surrogate for clearance (see review Nimmerjahn and Ravetch 2008).
(§1) Here, relative binding of the small-scale purified aSyn-L971-mAb samples to FcRn and FcγIIa (His131) by surface plasmon resonance (SPR) was determined. The relative binding of the small-scale purified aSyn-L971-mAb samples to the target was determined by ELISA.

Fcγ-RIIa (H131) = molecular target: T1, Fcγ-RIIa (H131) (Homo sapiens, UniProt P12318); test: Relative binding to FcγIIa (His131) by surface plasmon resonance (SPR); settings: for Relative level of FcyRIIa binding (at Day-14) (%): EXAMPLE-8, small-scale purified mAb from CHO L971 process, SPR, H131 allotype
T1 sequence (P12318 34-217 limits assumed): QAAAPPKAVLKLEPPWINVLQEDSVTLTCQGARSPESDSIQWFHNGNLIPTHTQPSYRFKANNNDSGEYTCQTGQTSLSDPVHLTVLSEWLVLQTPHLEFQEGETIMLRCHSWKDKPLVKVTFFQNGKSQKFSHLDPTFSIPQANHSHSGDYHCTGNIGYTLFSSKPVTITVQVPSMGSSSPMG
Description: Fcγ-receptors are mediators of effector functions on immune effector cells. Among the different human Fcγ-receptors, Fcγ-RIIa is considered to be a dominant factor in mediating antibody dependent phagocytosis (ADCP). Of the two most prevalent allotypes of Fcγ-RIIa, the form with a histidine at amino acid position 131 (H131) is often described as the higher affinity allotype. (Nimmerjahn and Ravetch 2008, Yamada et al. 2013)
as §1

human α-synuclein = human α-synuclein (Homo sapiens, UniProt P37840); test: Relative binding to the target by ELISA; settings: for Relative level of Target binding (at Day-14) (%): EXAMPLE-8, small-scale purified mAb from CHO L971 process, ELISA
Procedure: as §1

Row | Relative level of FcRn binding (at Day-14) (%) (FcRn) | Relative level of FcyRIIa binding (at Day-14) (%) (Fcγ-RIIa (H131)) | Relative level of Target binding (at Day-14) (%) (human α-synuclein) | FcRn relative binding level, higher than from the process with 3 mM L-cystine (FcRn; FIG. 11C, antibody from process with 6 mM L-cysteine vs 3 mM L-cystine) | FcRn relative binding level (FcRn; FIG. 11C, antibody from the process with 3 mM L-cystine in production medium) | FcRn relative binding level (FcRn; FIG. 11C, antibody from the process with 6 mM L-cysteine in production medium) | Fcγ-RIIa (H131) relative binding level, higher than from the process with 3 mM L-cystine (Fcγ-RIIa (H131); FIG. 11D, antibody from process with 6 mM L-cysteine vs 3 mM L-cystine) | Fcγ-RIIa (H131) relative binding level (Fcγ-RIIa (H131); FIG. 11D, antibody from the process with 3 mM L-cystine in production medium) | Fcγ-RIIa (H131) relative binding level (Fcγ-RIIa (H131); FIG. 11D, antibody from the process with 6 mM L-cysteine in production medium) | target relative binding level, higher than from the process with 3 mM L-cystine (human α-synuclein; FIG. 11E, antibody from process with 6 mM L-cysteine vs 3 mM L-cystine) | target relative binding level (human α-synuclein; FIG. 11E, antibody from the process with 3 mM L-cystine in production medium) | target relative binding level (human α-synuclein; FIG. 11E, antibody from the process with 6 mM L-cysteine in production medium) | Substance
1 | 85.0% | 77.0% | 83.0% |  |  |  |  |  |  |  |  |  | anti-α-synuclein L971 (3 mM Cystine): anti-human α-synuclein monoclonal antibody (Prasinezumab) from CHO L971 process with 3 mM L-cystine in production medium
2 | 118.0% | 113.0% | 118.0% |  |  |  |  |  |  |  |  |  | anti-α-synuclein L971 (6 mM Cysteine): anti-human α-synuclein monoclonal antibody (Prasinezumab) from CHO L971 process with 6 mM L-cysteine in production medium
3 |  |  |  | about 33% | about 85% | about 118% | about 36% | about 77% | about 113% | about 35% | about 83% | about 118% | anti-α-synuclein antibody L971: anti-human α-synuclein monoclonal antibody expressed by CHO L971 cell-line; CHO L971 cells produce Prasinezumab
